Where two headings read alike, the source gives them in different places.
Tests used:
VEGFR-3 [1] = molecular target: T1, VEGFR-3 (Homo sapiens, UniProt P35916); assay: Biosensor analysis (surface plasmon resonance) of VEGF-D ligands on VEGFR-3; format: binding
Procedure: (§1) To determine the relative affinities of the ligands VEGF-DSSTS.IISS, VEGF-D-FULL-N-FLAG and mature VEGF-D (designated VEGF-DΔNΔC) for VEGFR-2 and VEGFR-3, the relative binding kinetics for these interactions was analyzed by biosensor analysis using surface plasmon resonance detection (Nice et al., Bioessays, 21:339-352, 1999). The preparations of VEGF-DSSTS.IISS and VEGF-DΔNΔC used for this analysis each consisted of one VEGF-D species devoid of other forms of VEGF-D but the preparation of VEGF-D-FULL-N-FLAG did contain traces of partially processed as well as full-length material, reflecting the capacity of wild-type full-length VEGF-D to be proteolytically processed in the 293EBNA cell cultures) from which these proteins were purified (see FIG. 10B). The binding constants for the interactions were obtained by analysis of the initial dissociation phase to obtain the kd, which was then used to constrain a global analysis of the association region of the curves, using regions of the curves where a 1:1 Langmurian model appeared to be operative.

VEGFR-3 [2] = molecular target: T1, VEGFR-3; conditions: cited from earlier work
VEGFR-2 [3] = molecular target: T2, VEGFR-2 (Homo sapiens, UniProt P35968); assay: Biosensor analysis (surface plasmon resonance) of VEGF-D ligands on VEGFR-2; format: binding; conditions: 1:1 Langmurian model
Procedure: as §1

VEGFR-2 [4] = molecular target: T2, VEGFR-2; conditions: full-length form that could be processed, cited from earlier work

T2 sequence (P35968 20-1356): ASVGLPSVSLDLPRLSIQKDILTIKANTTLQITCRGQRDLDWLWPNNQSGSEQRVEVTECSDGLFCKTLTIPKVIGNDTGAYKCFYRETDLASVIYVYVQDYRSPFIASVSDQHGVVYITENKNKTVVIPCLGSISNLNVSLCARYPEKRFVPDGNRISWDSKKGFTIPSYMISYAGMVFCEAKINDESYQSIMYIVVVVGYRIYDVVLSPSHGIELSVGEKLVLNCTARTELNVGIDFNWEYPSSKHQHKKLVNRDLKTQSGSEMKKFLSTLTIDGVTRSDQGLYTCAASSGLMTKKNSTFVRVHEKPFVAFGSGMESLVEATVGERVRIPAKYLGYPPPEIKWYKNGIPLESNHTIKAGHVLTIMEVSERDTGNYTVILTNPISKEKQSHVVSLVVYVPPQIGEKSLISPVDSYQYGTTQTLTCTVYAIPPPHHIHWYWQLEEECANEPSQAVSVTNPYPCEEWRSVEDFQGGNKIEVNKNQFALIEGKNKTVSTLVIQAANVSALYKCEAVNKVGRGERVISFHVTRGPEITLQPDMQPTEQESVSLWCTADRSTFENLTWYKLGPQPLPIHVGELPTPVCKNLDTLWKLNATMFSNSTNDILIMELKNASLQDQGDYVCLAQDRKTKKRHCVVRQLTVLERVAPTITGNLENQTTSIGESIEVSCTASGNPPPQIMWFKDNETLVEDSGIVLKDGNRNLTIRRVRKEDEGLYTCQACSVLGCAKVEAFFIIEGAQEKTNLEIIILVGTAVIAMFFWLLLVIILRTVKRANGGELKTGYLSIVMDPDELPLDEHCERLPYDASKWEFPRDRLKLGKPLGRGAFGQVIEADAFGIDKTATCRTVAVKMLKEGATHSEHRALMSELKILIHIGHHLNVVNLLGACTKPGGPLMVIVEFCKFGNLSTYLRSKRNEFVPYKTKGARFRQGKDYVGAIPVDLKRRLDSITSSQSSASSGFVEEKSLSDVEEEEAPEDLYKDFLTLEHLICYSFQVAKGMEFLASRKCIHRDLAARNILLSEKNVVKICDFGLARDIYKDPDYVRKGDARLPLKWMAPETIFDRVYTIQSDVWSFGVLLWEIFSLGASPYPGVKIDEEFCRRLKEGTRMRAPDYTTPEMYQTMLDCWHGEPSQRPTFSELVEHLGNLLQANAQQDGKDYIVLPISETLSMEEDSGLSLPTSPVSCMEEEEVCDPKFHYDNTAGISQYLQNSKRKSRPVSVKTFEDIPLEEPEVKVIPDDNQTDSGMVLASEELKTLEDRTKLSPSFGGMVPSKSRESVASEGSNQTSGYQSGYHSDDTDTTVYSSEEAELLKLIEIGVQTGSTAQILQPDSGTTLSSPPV
T1 sequence (P35916 25-1363): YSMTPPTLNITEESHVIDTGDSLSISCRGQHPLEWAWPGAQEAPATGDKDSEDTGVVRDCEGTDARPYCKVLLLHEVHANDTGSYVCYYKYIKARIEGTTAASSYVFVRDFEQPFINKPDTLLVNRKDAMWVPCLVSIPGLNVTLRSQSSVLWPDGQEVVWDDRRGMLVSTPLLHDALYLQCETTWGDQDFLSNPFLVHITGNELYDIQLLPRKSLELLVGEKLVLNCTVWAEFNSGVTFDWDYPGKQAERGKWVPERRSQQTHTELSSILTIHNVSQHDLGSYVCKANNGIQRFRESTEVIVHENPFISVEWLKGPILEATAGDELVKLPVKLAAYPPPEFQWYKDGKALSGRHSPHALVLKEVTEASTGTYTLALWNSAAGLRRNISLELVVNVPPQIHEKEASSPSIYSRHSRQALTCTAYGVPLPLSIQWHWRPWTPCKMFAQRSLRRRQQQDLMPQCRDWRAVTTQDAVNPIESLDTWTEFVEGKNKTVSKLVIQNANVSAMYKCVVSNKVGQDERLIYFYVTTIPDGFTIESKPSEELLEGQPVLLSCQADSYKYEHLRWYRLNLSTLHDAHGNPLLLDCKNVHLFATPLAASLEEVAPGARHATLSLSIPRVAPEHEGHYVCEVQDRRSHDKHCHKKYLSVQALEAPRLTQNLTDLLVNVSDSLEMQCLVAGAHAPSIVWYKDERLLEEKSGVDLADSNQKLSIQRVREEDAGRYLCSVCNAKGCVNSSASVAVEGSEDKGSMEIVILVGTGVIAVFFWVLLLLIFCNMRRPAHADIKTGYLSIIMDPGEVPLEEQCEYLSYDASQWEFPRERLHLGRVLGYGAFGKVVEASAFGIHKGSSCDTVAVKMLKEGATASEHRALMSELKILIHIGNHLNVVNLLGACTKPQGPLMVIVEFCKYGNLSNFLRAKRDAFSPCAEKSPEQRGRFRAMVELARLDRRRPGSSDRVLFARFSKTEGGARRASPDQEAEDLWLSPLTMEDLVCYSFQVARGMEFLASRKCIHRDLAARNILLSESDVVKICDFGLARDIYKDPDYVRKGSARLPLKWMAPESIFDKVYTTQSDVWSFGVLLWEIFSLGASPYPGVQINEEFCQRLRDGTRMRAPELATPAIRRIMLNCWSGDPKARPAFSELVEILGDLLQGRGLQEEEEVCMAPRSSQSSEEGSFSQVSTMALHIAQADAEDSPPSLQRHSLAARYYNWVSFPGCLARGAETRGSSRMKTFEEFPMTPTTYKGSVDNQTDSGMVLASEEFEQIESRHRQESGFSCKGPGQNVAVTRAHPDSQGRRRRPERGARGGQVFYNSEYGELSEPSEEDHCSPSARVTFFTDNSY

affinity for VEGFR-3 relative to VEGF-DSSTS.IISS (VEGFR-3 [1]): ~18 fold
apparent affinity for VEGFR-2 relative to unprocessed mutant VEGF-DSSTS.IISS (VEGFR-2 [3]): ~17,000 fold
B1: mature VEGF-D: mature form of VEGF-D consisting of dimers of the VHD, lacking both propeptides (protein)
chain: FAATFYDIETLKVIDEEWQRTQCSPRETCVEVASELGKSTNTFFKPPCVNVFRCGGCCNEESLICMNTSTSYISKQLFEISVPLTSVPELVPVKVANHTGCKCLPTAPRHPYSIIRR
affinity for VEGFR-3 relative to unprocessed VEGF-D, previously reported (VEGFR-3 [2]): ~40 fold
affinity for VEGFR-2 relative to full-length (unprocessed) VEGF-D, previously reported (VEGFR-2 [4]): ~290 fold
affinity for VEGFR-2 relative to full-length (unprocessed) VEGF-D, previously reported (VEGFR-2 [4]; listed as mature form of VEGF-D): approximately 290 fold

Source: patent publication US20070224194A1, “Methods for Inhibiting Angiogenesis and/or Lymphangiogenesis” (LUDWIG INSTITUTE FOR CANCER RESEARCH, priority 2004, published 2007)
